Measured values reported in patent US8586570.

B1: PKCζ (enzyme, UniProt Q05513 1-592, looked up, species assumed)
Protein kinase C zeta type: MPSRTGPKMEGSGGRVRLKAHYGGDIFITSVDAATTFEELCEEVRDMCRLHQQHPLTLKWVDSEGDPCTVSSQMELEEAFRLARQCRDEGLIIHVFPSTPEQPGLPCPGEDKSIYRRGARRWRKLYRANGHLFQAKRFNRRAYCGQCSERIWGLARQGYRCINCKLLVHKRCHGLVPLTCRKHMDSVMPSQEPPVDDKNEDADLPSEETDGIAYISSSRKHDSIKDDSEDLKPVIDGMDGIKISQGLGLQDFDLIRVIGRGSYAKVLLVRLKKNDQIYAMKVVKKELVHDDEDIDWVQTEKHVFEQASSNPFLVGLHSCFQTTSRLFLVIEYVNGGDLMFHMQRQRKLPEEHARFYAAEICIALNFLHERGIIYRDLKLDNVLLDADGHIKLTDYGMCKEGLGPGDTTSTFCGTPNYIAPEILRGEEYGFSVDWWALGVLMFEMMAGRSPFDIITDNPDMNTEDYLFQVILEKPIRIPRFLSVKASHVLKGFLNKDPKERLGCRPQTGFSDIKSHAFFRSIDWDLLEKKQALPPFQPQITDDYGLDNFDTQFTSEPVQLTPDDEDAIKRIDQSEFEGFEYINPLLLSTEESV
B2: PKCµ (enzyme, UniProt Q15139 1-912, looked up, species assumed)
Serine/threonine-protein kinase D1: MSAPPVLRPPSPLLPVAAAAAAAAAALVPGSGPGPAPFLAPVAAPVGGISFHLQIGLSREPVLLLQDSSGDYSLAHVREMACSIVDQKFPECGFYGMYDKILLFRHDPTSENILQLVKAASDIQEGDLIEVVLSASATFEDFQIRPHALFVHSYRAPAFCDHCGEMLWGLVRQGLKCEGCGLNYHKRCAFKIPNNCSGVRRRRLSNVSLTGVSTIRTSSAELSTSAPDEPLLQKSPSESFIGREKRSNSQSYIGRPIHLDKILMSKVKVPHTFVIHSYTRPTVCQYCKKLLKGLFRQGLQCKDCRFNCHKRCAPKVPNNCLGEVTINGDLLSPGAESDVVMEEGSDDNDSERNSGLMDDMEEAMVQDAEMAMAECQNDSGEMQDPDPDHEDANRTISPSTSNNIPLMRVVQSVKHTKRKSSTVMKEGWMVHYTSKDTLRKRHYWRLDSKCITLFQNDTGSRYYKEIPLSEILSLEPVKTSALIPNGANPHCFEITTANVVYYVGENVVNPSSPSPNNSVLTSGVGADVARMWEIAIQHALMPVIPKGSSVGTGTNLHRDISVSISVSNCQIQENVDISTVYQIFPDEVLGSGQFGIVYGGKHRKTGRDVAIKIIDKLRFPTKQESQLRNEVAILQNLHHPGVVNLECMFETPERVFVVMEKLHGDMLEMILSSEKGRLPEHITKFLITQILVALRHLHFKNIVHCDLKPENVLLASADPFPQVKLCDFGFARIIGEKSFRRSVVGTPAYLAPEVLRNKGYNRSLDMWSVGVIIYVSLSGTFPFNEDEDIHDQIQNAAFMYPPNPWKEISHEAIDLINNLLQVKMRKRYSVDKTLSHPWLQDYQTWLDLRELECKIGERYITHESDDLRWEKYAGEQGLQYPTHLINPSASHSDTPETEETEMKALGERVSIL
B3: PKCι (enzyme, UniProt P41743 2-596, looked up, species assumed)
Protein kinase C iota type: PTQRDSSTMSHTVAGGGSGDHSHQVRVKAYYRGDIMITHFEPSISFEGLCNEVRDMCSFDNEQLFTMKWIDEEGDPCTVSSQLELEEAFRLYELNKDSELLIHVFPCVPERPGMPCPGEDKSIYRRGARRWRKLYCANGHTFQAKRFNRRAHCAICTDRIWGLGRQGYKCINCKLLVHKKCHKLVTIECGRHSLPQEPVMPMDQSSMHSDHAQTVIPYNPSSHESLDQVGEEKEAMNTRESGKASSSLGLQDFDLLRVIGRGSYAKVLLVRLKKTDRIYAMKVVKKELVNDDEDIDWVQTEKHVFEQASNHPFLVGLHSCFQTESRLFFVIEYVNGGDLMFHMQRQRKLPEEHARFYSAEISLALNYLHERGIIYRDLKLDNVLLDSEGHIKLTDYGMCKEGLRPGDTTSTFCGTPNYIAPEILRGEDYGFSVDWWALGVLMFEMMAGRSPFDIVGSSDNPDQNTEDYLFQVILEKQIRIPRSLSVKAASVLKSFLNKDPKERLGCHPQTGFADIQGHPFFRNVDWDMMEQKQVVPPFKPNISGEFGLDNFDSQFTNEPVQLTPDDDDIVRKIDQSEFEGFEYINPLLMSAEECV
B4: PKCν (enzyme, UniProt O94806 1-890, looked up, species assumed)
Serine/threonine-protein kinase D3: MSANNSPPSAQKSVLPTAIPAVLPAASPCSSPKTGLSARLSNGSFSAPSLTNSRGSVHTVSFLLQIGLTRESVTIEAQELSLSAVKDLVCSIVYQKFPECGFFGMYDKILLFRHDMNSENILQLITSADEIHEGDLVEVVLSALATVEDFQIRPHTLYVHSYKAPTFCDYCGEMLWGLVRQGLKCEGCGLNYHKRCAFKIPNNCSGVRKRRLSNVSLPGPGLSVPRPLQPEYVALPSEESHVHQEPSKRIPSWSGRPIWMEKMVMCRVKVPHTFAVHSYTRPTICQYCKRLLKGLFRQGMQCKDCKFNCHKRCASKVPRDCLGEVTFNGEPSSLGTDTDIPMDIDNNDINSDSSRGLDDTEEPSPPEDKMFFLDPSDLDVERDEEAVKTISPSTSNNIPLMRVVQSIKHTKRKSSTMVKEGWMVHYTSRDNLRKRHYWRLDSKCLTLFQNESGSKYYKEIPLSEILRISSPRDFTNISQGSNPHCFEIITDTMVYFVGENNGDSSHNPVLAATGVGLDVAQSWEKAIRQALMPVTPQASVCTSPGQGKDHKDLSTSISVSNCQIQENVDISTVYQIFADEVLGSGQFGIVYGGKHRKTGRDVAIKVIDKMRFPTKQESQLRNEVAILQNLHHPGIVNLECMFETPERVFVVMEKLHGDMLEMILSSEKSRLPERITKFMVTQILVALRNLHFKNIVHCDLKPENVLLASAEPFPQVKLCDFGFARIIGEKSFRRSVVGTPAYLAPEVLRSKGYNRSLDMWSVGVIIYVSLSGTFPFNEDEDINDQIQNAAFMYPPNPWREISGEAIDLINNLLQVKMRKRYSVDKSLSHPWLQDYQTWLDLREFETRIGERYITHESDDARWEIHAYTHNLVYPKHFIMAPNPDDMEEDP

System: PKCα-S10

Row | Protein | phosphorylation activity (1 µM peptide, 2 ng kinase)
1 | B1 | very little activity is detected with PKCε, PKCζ, PKCη and PKCι
2 | B2 | no activity is observed with PKCδ, PKCµ, and PKCν
3 | B3 | very little activity is detected with PKCε, PKCζ, PKCη and PKCι
4 | B4 | no activity is observed with PKCδ, PKCµ, and PKCν
